Measurements from doi:10.1101/2020.10.01.322594.

Target: Phaeodactylum tricornutum diaminopimelate decarboxylase (PtLYSA), amino acids 39-476 (Phaeodactylum tricornutum)
Test: SEC

Substance “Phaeodactylum tricornutum diaminopimelate decarboxylase (PtLYSA), amino acids 39-476 (enzyme)” has a stoichiometry N of 2.
